Assay [1] concerns the target TAT-028 protein on the surface of human tumor cell lines (NCI-H460, HEK293, HepG2) (human) (UniProt P80723). Kind of assay: flow cytometry on HEK293 cells; secondary antibody only, background control.
Assay [2] has the same target. The experiment in a line: flow cytometry on HepG2 cells; secondary antibody only, background control. On the technique in general: In flow cytometry, cells or beads pass a laser one at a time.
Assay [3] has the same target. Kind of assay: flow cytometry on NCI-H460 cells; secondary antibody only, background control.

The text below walks through data of patent US20070192883A1.

Sequence of UniProt P80723 (P80723 2-227 limits assumed): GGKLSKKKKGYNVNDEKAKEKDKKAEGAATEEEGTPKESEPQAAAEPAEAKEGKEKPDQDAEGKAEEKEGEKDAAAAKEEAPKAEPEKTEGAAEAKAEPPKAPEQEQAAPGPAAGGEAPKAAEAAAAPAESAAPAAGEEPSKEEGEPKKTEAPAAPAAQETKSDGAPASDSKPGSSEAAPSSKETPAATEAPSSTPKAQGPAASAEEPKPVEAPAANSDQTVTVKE

PE-conjugated anti-mouse IgG (antibody): the figures for the geometric mean fluorescence (geometric mean fluorescence units) in assay [1], in assay [2] and in assay [3] were 124, 178 and 37, respectively.
